Legend:
[1] = target: T1, soluble aggregates of tau (STAs) (human, UniProt P10636-8 1-441); experiment: ELISA; settings: both partners purified
T1 construct: also called soluble Tau aggregates; SPAs (as a member of the group)

[2] = target: T2, soluble aggregates of Aβ_(1–42) (SBAs) (human, UniProt P05067 672-713); experiment: ELISA; settings: both partners purified
T2 construct: also called soluble Aβ aggregates; SPAs (as a member of the group)

T1 sequence (P10636 other isoform, or with tags, fused parts or gaps): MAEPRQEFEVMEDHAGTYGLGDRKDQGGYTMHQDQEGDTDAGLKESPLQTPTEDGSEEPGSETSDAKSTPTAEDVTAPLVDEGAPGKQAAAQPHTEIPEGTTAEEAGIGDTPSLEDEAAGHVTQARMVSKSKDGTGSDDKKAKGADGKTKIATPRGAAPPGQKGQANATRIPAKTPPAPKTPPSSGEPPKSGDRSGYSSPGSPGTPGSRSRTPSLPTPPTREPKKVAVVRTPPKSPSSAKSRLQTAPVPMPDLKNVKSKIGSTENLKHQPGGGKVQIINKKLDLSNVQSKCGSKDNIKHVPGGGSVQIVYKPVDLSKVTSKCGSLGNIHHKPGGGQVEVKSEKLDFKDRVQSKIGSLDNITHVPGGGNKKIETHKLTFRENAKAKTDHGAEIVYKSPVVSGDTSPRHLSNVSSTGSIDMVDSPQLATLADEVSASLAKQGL

B1: recombinant murine prion protein PrP_(23–231) (domain or fragment)
chain: not shown
notes: also called full-length PrP
Which results are given for B1?
binding result [1]: binds; binding result [2]: binds

Source: PMC7035229 (Acta Neuropathologica, 2019)
